Measured values published in US20160327558A1 (HELMHOLTZ ZENTRUM M NCHEN DEUTSCHES FORSCHUNGSZENTRUM F R …, published 2016).
Changes are numbered by the printed parent chain. Primed or numbered codes have the meaning given here. The star is where a group is joined. AOMK(5) = C-terminal Arg as acyloxymethyl ketone (dimethyl benzoic acid leaving group), Cc1cccc(C)c1C(=O)OCC(=O)[C@H](CCCNC(=N)N)N*; AOMK(4) = acyloxymethyl ketone (C-terminal covalent warhead); BODIPY(FL) = CC1=CC(C)=[N+]2C1=Cc1ccc(CCC(=O)*)n1[B-]2(F)F; FITC = O=C1OC2(c3ccc(O)cc3Oc3cc(O)ccc32)c2ccc(NC(=S)*)cc21; Butanoyl(4-ethynyl) = C#CCCCC(=O)*

Legend:
[1] = molecular target: T1, FLAG-MALT1 active site mutant C464A (C453A in Isoform B) (human, UniProt Q9UDY8 2-824); test: labeling after FLAG IP, SDS PAGE, fluorescence scanning
T1 construct: Isoform B with C453A; also called MALT1 mutant; not shown: N-terminal FLAG tag (or HA tag)
T1 sequence: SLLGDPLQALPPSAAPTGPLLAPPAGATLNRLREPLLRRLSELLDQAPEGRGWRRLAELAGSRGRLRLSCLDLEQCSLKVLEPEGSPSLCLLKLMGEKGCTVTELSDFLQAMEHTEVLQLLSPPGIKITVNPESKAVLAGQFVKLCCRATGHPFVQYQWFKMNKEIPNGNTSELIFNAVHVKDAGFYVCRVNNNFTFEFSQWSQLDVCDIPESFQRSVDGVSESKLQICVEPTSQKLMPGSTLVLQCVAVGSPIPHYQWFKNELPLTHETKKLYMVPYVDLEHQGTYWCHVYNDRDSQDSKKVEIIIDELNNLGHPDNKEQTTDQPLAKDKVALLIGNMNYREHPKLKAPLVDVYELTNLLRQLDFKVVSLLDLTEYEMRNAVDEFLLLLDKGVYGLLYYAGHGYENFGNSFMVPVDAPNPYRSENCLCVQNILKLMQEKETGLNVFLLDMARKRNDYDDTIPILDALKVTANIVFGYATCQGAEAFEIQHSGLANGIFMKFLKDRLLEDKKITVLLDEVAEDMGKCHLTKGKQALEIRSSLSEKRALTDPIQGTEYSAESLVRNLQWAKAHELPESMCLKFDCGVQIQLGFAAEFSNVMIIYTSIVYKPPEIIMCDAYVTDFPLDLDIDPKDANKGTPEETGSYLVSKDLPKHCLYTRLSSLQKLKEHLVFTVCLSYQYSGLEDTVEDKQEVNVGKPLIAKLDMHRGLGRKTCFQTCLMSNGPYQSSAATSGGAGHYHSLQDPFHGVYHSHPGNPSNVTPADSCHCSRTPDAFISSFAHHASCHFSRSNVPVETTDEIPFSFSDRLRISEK
Procedure: (§1) Jurkat T cells, transfected with active FLAG-[…] wt or active site mutant C464A, were stained after lysis and IP with probe 2, pre-clicked to TAMRA. Analysis was done by fluorescence staining.
(§2) Cells were lysed in 500 μl co-IP buffer without protease inhibitors (25 mM hepes pH 7.5, 150 mM NaCl, 0.2% NP-40, 10% glycerol, 1 mM DTT, 10 mM sodium fluoride, 8 mM β-glycerophosphate and 300 μM sodium vanadate), centrifuged (14000 rpm, 10 min, 4° C.) and overexpressed FLAG MALT1 was immunoprecipitated by FLAG (M2) antibody for 3 hours at 4° C. PGS was added for 1 h at 4° C., precipitate was washed 2× with co-IP buffer and 1× with 50 mM hepes pH 7.4. Precipitated MALT1 was incubated with 0.3 μM pre-clicked probe 2 (in 20 μl 50 mM hepes pH 7.4) for 50 min at 29° C., mixed with 4× loading dye and boiled for 3 min. After protein separation by SDS PAGE, staining with diagnostic inhibitor was detected by Typhoon Fluorescence Scanner (FITC laser 488 nm/filter 526 SP; TAMRA laser 532 nm/filter 580 BP).

[2] = molecular target: T2, FLAG-MALT1 wt (MALT1 Isoform B, overexpressed in Jurkat T cells) (human, UniProt Q9UDY8 2-824); test: labeling after lysis and FLAG IP, in-gel fluorescence
T2 construct: also called overexpressed FLAG-MALT1 wt; not shown: N-terminal FLAG tag (or HA tag)
T2 sequence: T1 sequence with A452C
Procedure: as §1, §2

Human cathepsin B [3] = molecular target: T3, Human cathepsin B (human, UniProt P07858 80-333); test: Jurkat whole cell extract labeled with probe 5 or probe 6, fluorescent scanning
Procedure: FIG. 6: Jurkat T cells were stimulated or not, lysed and whole cell extract was incubated with indicated concentrations of FITC conjugated probe 5 or BODIPY conjugated probe 6 and analyzed via fluorescent scanning. Probe 6 results in slightly higher active MALT1 labeling and cathepsin labeling (open circle) seems to be reduced.
Jurkat T cells (1-2×10⁷), primary human PBMCs or primary human T cells (0.25 or 1×10⁷) were lysed in 150 μl co-IP buffer without protease inhibitors. DLBCL (3×10⁷) were lysed in 250 μl buffer. After centrifugation (14000 rpm, 10 min, 4° C.), 100 μl extract (DLBCL: 200 μl) was stained with probe 5 or probe 6 (3 μM end) for 50 min at 29° C., mixed with 4× loading dye and boiled.

Human cathepsin B [4] = molecular target: T3, Human cathepsin B; test: extracts of Jurkat T cells labeled with probe 5, in-gel fluorescence
Human cathepsin B [5] = molecular target: T3, Human cathepsin B; test: reduction of the labeled cathepsin B band and in vitro cathepsin B cleavage assay
Procedure: 0.2 ng cathepsin B together with probe 5, z-VRPR-FMK, mepazine or CA-074 was incubated with 1 mM zRR-AMC substrate for 2 h at 30° C. Assay was performed in 0.1 M sodium acetate pH 5.5, 10 mM DTT and 0.1 mM EDTA. Again, increase of AMC fluorescence is measured in a Synergy 2 Microplate Reader (Biotek).
Importantly, MALT1 was the only inducible band in extracts labeled with probe 5, although some background signals were obtained. […] As expected, Caspase 8 activity was not affected by the diagnostic inhibitors of MALT1 of the present invention. […] In agreement with cross-reaction of the diagnostic MALT1 inhibitors of the present invention and cathepsin B, preincubation of CA-074Me in Jurkat T cells completely abolished detection of the ˜30 kDa signal while inducible MALT1 labeling was unaffected (FIG. 3D). Thus, tetrapeptides that target the active site of MALT1 are also binding to cathepsin B. Since serine (LRSR) or proline (VRPR) at the P2 position is already poorly tolerated by cysteine cathepsins, improvement of the peptide scaffold may be very difficult.

B1: probe 2 (alkyne-LRSR-AOMK), pre-clicked to TAMRA (peptide)
peptide: {N‑TAMRA‑3‑aminopropylazide (click)-Butanoyl(4-ethynyl)}-LRSR-{AOMK(5)}
notes: Covalent activity-based probe; also called TAMRA-LRSR-AOMK
Q: Does B1 bind [1]?
A: no binding (tested: 0.3 µM pre-clicked probe 2)

Q: Does B1 bind [2]?
A: binds

B2: probe 6 ((BODIPY-FL)-LRSR-AOMK) (peptide)
peptide: {BODIPY(FL)}-LRSR-{AOMK(5)}
SMILES: CC1=CC(C)=[N+]2C1=Cc1ccc(CCC(=O)N[C@@H](CC(C)C)C(=O)N[C@@H](CCCNC(=N)N)C(=O)N[C@@H](CO)C(=O)N[C@@H](CCCNC(=N)N)C(=O)N[C@@H](CCCNC(=N)N)C(=O)COC(=O)c3c(C)cccc3C)n1[B-]2(F)F
notes: Covalent activity-based probe; also called BODIPY conjugated probe 6; BODIPY probe 6
Q: Does B2 bind (Human cathepsin B [3])?
A: binds

B3: probe 5 (FITC-LRSR-AOMK) (peptide)
peptide: {FITC}-LRSR-{AOMK(4)}
notes: Covalent activity-based probe; also called FITC conjugated probe 5
Q: Does B3 bind (Human cathepsin B [4])?
A: binds

B4: z-VRPR-FMK (peptide)
peptide: VRPR
modifications: not fully specified; N-terminal z group; C-terminal Arg as fluoromethylketone (FMK)
notes: Bought (Alexis Biochemicals)
Q: Does B4 bind (Human cathepsin B [5])?
A: binds
